# B1: h7C3-3: 7C3 variant bearing T28A in CDR H1, Y100H in CDR H3 and S97A in CDR L3 (antibody, V domains shown)
# VH: QVQLQQPGSVLVRPGASVKLSCKASGYAFTSSWIHWAKQRPGQGLEWIGQIRPNSGNTYYNEKFKVKATLTVDTSSSTAYVDLSSLTSEDSAVYYCARYHYGFDYWGQGTLVTVSS
# VL: DVLMTQTPLSLPVSLGDQASISCRSSQSIVHSNGNTYLEWYLQKPGQSPKLLIYKVSNRFSGVPDRFSGSGSGTDFTLKISRVEAEDLGVYYCFQGAHLPWTFGGGTKLEIKR
# What was measured:
# NTSR1 on A549 cells = molecular target: T1, NTSR1 on A549 cells (Homo sapiens, UniProt P30989); assay: Flow cytometry (FACS) binding of anti-NTSR1 antibodies on A549 cells
# T1 construct: endogenous in cells; host or cells: A549 (NSCLC)
# NTSR1 ECL2 peptide [1] = molecular target: T2, NTSR1 ECL2 peptide (Homo sapiens, UniProt P30989); assay: Surface plasmon resonance with immobilized ECL2 peptide; conditions: SPR, 1:1 binding model
# Experimental: The interaction of NTSR1-specific mAbs with extracellular loop 2 (ECL2) peptides of NTSR1 was measured by surface plasmon resonance using an Open SPR (Nicoya, Canada) instrument. Biotin-conjugated ECL2 peptides were immobilized on a streptavidin-coated sensor chip by injecting the peptides diluted in HBS-EP5 buffer saline (20 mM HEPES, 250 mM NaCl, 3 mM EDTA, 0.05% Tween 20 and 0.5% BSA, pH 7.4) at a concentration of 10 μg/ml at a flow rate of 30 μl/min. For kinetic experiments, NTSR1-specific mAbs diluted in HBS-EP5 at concentrations ranging from 24 to 1.5 nM were injected at a flow rate of 30 μl/min over the immobilized ECL2 peptides. Binding of the NTSR1-specific mAbs at different concentrations to the immobilized ECL2 peptides were analyzed using the TraceDrawer software (Nicoya, Canada). Association rate (ka), dissociation rate (kd), and affinity (KD) were calculated using global analysis, fitting the data to a simple 1:1 binding model.
# Target sequence in this assay (P30989 206-234 limits assumed): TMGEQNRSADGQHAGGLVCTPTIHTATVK
# [2] = tested on: cyclic ECL2 peptide of NTSR1; assay: NTSR1-binding affinity ELISA (alanine scanning variants); set-up: species or system human; conditions: h7C3-2 variants
# Experimental: The NTSR1-binding capacity of different antibodies were measured by ELISA. Briefly, NeutrAvidin 96-well plates (Pierce Cat:15128) were coated with cyL2-Biotin peptides at a final concentration of 5 μg/ml at […]. On the following day, the coating solution was removed, and the plates were blocked with 5% (v/v) non-fat dry milk in phosphate buffer saline (PBS) for 1 hour. After washing with PBST, gradient concentrations of anti-NTSR1 antibodies were added in triplicate. After 1 hour of incubation, the plate was washed three times with PBST, followed by the addition of horseradish peroxidase (HRP)-conjugated goat anti-human IgG Fc antibody (100 μL) into each well for an additional hour at RT. Finally, 100 μL of tetramethylbenzidine (TMB) substrate was added into each well to produce color for visualization. After 2 minutes of incubation, 100 μL of 2M H2SO4 was used to stop the reaction. The absorbance of each well was read at 450 nm with a plate reader. Flow cytometry
# A549 = assay: In vitro cell cytotoxicity assay (CellTiter-Glo); format: cell-based
# Experimental: (§1) The number of living cells were determined using the CellTiter-Glo® Luminescent Cell Viability Assay (Promega G7571). Cells were plated in 96-well opaque Costar plates (Cat number 136101). In brief, 500-2500 cells in 90 μL media were added to each well in quadruplicate and allowed to adhere for 16 hours. Anti-NTSR1 (dose range: 0-500 nM), anti-NTSR1-MMAE (dose range: 0-500 nM) or Paclitaxel (dose range: 0-100 nM) were added in […] 72-120 hours, medium was removed, and 200 μL of CellTiter-Glo® viability reagent contain culture medium (1:1) was added to each well and placed on an orbital shaker in the dark for 2 minutes. The plate was allowed to sit at RT for 10 minutes before being read on a GloMax® Explorer Multimode Microplate Reader (GM3500).
# H1299 = assay: In vitro cell cytotoxicity assay (CellTiter-Glo); format: cell-based
# Experimental: as §1
# HA22T-Luc = assay: In vitro cell cytotoxicity assay (CellTiter-Glo); format: cell-based
# Experimental: as §1
# HA22T = assay: In vitro cell cytotoxicity assay (CellTiter-Glo); format: cell-based
# Experimental: as §1
# Mahlavu = assay: In vitro cell cytotoxicity assay (CellTiter-Glo); format: cell-based
# Experimental: as §1
# PC-3 = assay: In vitro cell cytotoxicity assay (CellTiter-Glo); format: cell-based
# Experimental: as §1
# A549 cells = assay: Internalization of NTSR-1 antibody (flow cytometry); format: cell-based; conditions: A549, 10 μg/ml
# Experimental: NTSR-1 antibody was used for flow cytometry analysis to compare the NTSR1 expression level in different lung and HCC cell lines, including A549, H1299, HA22T and Mahlavu. A total of 1×10^6 cells were reacted with the h7C3-3 antibody in FACS buffer for 60 minutes at 4° C. and washed two times to remove excess antibody. Cells were then transferred to 4° C. or 37° C. for 0, 0.5, 2, 5, 24 hours and followed by an additional incubation with secondary anti-human IgG Fc-PE (BioLegend) antibody for 60 minutes at 4° C. Cells were washed again, and data were collected by BD LSRFortessa. Fluorescence intensity from channel FL-1 was calculated with Flow Jo flow cytometry analysis software.
# [3] = tested on: NTSR1-expressing A549 cancer cells; assay: Internalization of h7C3-3 or h7C3-3-ADC in A549 cells (flow cytometry); format: cell-based; conditions: A549, 1 μg/ml, 37° C. for 90 minutes
# Experimental: A total of 1×10^6 cells were reacted with the indicated antibody or ADC in 100 μL of FACS buffer for 60 minutes at 4° C. and washed to remove excess antibody or ADC. Cells were then transferred to 4° C. or 37° C. for 90 minutes. To determine the relative number of h7C3-3 or h7C3-3-ADC on the cell surface, cells were stained with saturating amounts of FITC (BD Pharmingen™) conjugated mouse anti-human IgG antibodies and incubated for additional 60 minutes on ice. Cells were washed again and followed by an additional incubation with 1 ml PBS containing 0.5 mg/mL propidium iodide at 4° C. for 10 minutes. Data were collected on 10,000 living cells by FACS (Bio-Red S3e cell sorter). Fluorescence intensity from channel FL-1 was calculated with Flow Jo flow cytometry analysis software. Preparation of anti-NTSR1 antibody-drug conjugates (ADCs)
# NTSR1 = molecular target: T3, NTSR1 (Homo sapiens, UniProt P30989); assay: Immunohistochemistry staining of PC-3 xenograft tumor tissue; conditions: 2 μg/ml antibody
# T3 construct: Solid tumors were excised from PC-3 xenograft mice without treatment, followed by immunohistochemistry staining using antibodies specific for NTSR1; from tissue; host or cells: PC-3 prostate cancer xenograft tumour grown in mice
# Experimental: Deparaffinized tissue sections (4 μm) were subjected to heat-induced epitope retrieval in Tris-EDTA buffer (pH 9) at 95° C. for 30 minutes. The sections were blocked with inhibitor CM at 37° C. for 4 minutes. The slides were incubated with primary antibody including 2 μg/ml anti-NTSR1-B12 (SC-376958, Santa Cruz Biotechnology) and different […] antibody clones (7C3, h7C3-2 and h7C3-3) for 1 hour. The slides were then incubated with appropriate secondary antibodies; OmniMap anti-mouse-HRP for anti-NTSR1-B12 and anti-human-HRP for 7C3, h7C3-2 and h7C3-3 at RT for 30 minutes. The staining was performed with diamino-benzidine tetrahydrochloride.
# NTSR1 ECL2 peptide [4] = molecular target: T2, NTSR1 ECL2 peptide; assay: Kon (M^-1s^-1)
# Experimental: (§2) Table printed on a drawing sheet, FIG. 2
# Head of the field: Kon (M^-1s^-1)
# (§3) The patent's description of the figure: FIG. 2 is a graph showing affinity and kinetics data of h7C3-3. The binding affinity between h7C3-3 and NTSR1 ECL2 peptide was determined by surface plasmon resonance (SPR).
# (§4) First copying reader's note: Table stands under the sensorgram plot headed h7C3-3 inside the same frame.
# (§5) Where the first naming reader finds the target: description_of_the_figure: The binding affinity between h7C3-3 and NTSR1 ECL2 peptide was determined by surface plasmon resonance (SPR).
# NTSR1 ECL2 peptide [5] = molecular target: T2, NTSR1 ECL2 peptide; assay: Koff (s^-1)
# Experimental: as §2
# Head of the field: Koff (s^-1)
# as §3, §4, §5
# T1 sequence (P30989 whole entry): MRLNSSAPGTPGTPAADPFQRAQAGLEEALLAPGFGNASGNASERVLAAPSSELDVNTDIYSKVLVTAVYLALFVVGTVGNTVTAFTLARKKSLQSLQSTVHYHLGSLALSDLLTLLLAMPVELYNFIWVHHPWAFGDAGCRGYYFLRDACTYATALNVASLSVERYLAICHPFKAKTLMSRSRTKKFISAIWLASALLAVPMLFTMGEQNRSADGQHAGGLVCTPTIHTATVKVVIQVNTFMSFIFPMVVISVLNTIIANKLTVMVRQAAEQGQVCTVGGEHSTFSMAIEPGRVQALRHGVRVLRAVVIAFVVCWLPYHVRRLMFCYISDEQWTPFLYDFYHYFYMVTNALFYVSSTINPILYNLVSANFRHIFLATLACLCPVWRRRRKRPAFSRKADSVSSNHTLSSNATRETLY
# T3 sequence (P30989 whole entry): as above
molecule,measurement,setting,value
B1,"FACS binding (%, 1 μg/ml)","NTSR1 on A549 cells; A549 cells, antibody 1 μg/ml",98.7%
same,"FACS binding (%, 10 μg/ml)","NTSR1 on A549 cells; A549 cells, antibody 10 μg/ml",100%
same,binding on cell surface,"NTSR1 on A549 cells; A549 cells, one hour incubation at 4° C.",have binding efficiency on cell surface
same,affinity for NTSR1 on A549 cells compared with h7C3-2,"NTSR1 on A549 cells; FACS, h7C3-2 variant",higher affinity
same,EC50,NTSR1 on A549 cells; relative mean fluorescence intensity (MFI) on A549 cells,1.1 µg/mL
same,Kd,NTSR1 ECL2 peptide [1],0.3 nM
same,binding affinity to peptide compared with h7C3-2 (in words),[2],higher binding affinity
same,IC50,A549,> 500 nM
same,IC50,H1299,> 500 nM
same,IC50,HA22T-Luc,> 500 nM
same,IC50,HA22T,> 500 nM
same,IC50,Mahlavu,> 500 nM
same,IC50,PC-3,> 500 nM
same,mean fluorescence intensity (MFI) upon shifting cells from 4° C. to 37° C. (internalization),A549 cells,decreased gradually
same,internalization efficiency,[3],internalized efficiently
same,immunohistochemistry staining,NTSR1,clustered and more intense
same,Kon,NTSR1 ECL2 peptide [4],441000 M⁻¹ s⁻¹
same,Koff,NTSR1 ECL2 peptide [5],0.000134 s⁻¹

# Source: patent publication US12710427B2, “Anti-human neurotensin receptor 1 antibody and use thereof” (National Health Research Institutes, priority 2020, dated 2026)
